These results are taken from patent US20140004120A1 (Daiichi Sankyo, published 2014).

The target in this test is T1, rsDR5 (recombinant human DR5 extracellular domain protein) (human, UniProt O14763 56-183).
T1 construct: the two may be offset
The test is described as follows: gel filtration (Superdex 200) of the mixture of cB273 Fab fragment and rsDR5; complex then crystallized. Background: Size exclusion chromatography separates by hydrodynamic size, large species first.

B1: cB273 Fab fragment (Fab, V domains shown)
VH: EVQLQQSGPELVKPGASVKISCKASGYSFIGYFMNWMKQSHGKSLEWIGRFNPYNGDTFYNQKFKGKATLTVDKSSTTAHMELLSLTSEDSAVYFCGRSAYYFDSGGYFDYWGQGTTLTVSS
VL: DVVMTQTPLSLPVSLGDQASISCRSSQSLVHSNGNTYLHWYLQKPGQSPKLLIYKVSNRFSGVPDRFSGSGSGTDFTLKISRVEAEDLGIYFCSQSTHVPWTFGGGTKLEIKR
As for B1, the binding result is reported as “binds”.
